# Results taken from IntAct's records for PubMed 18172500.
# B1: E3 ubiquitin-protein ligase CHFR (Homo sapiens), Q96EP1-1 (parent)
# chain: MERPEEGKQSPPPQPWGRLLRLGAEEGEPHVLLRKREWTIGRRRGCDLSFPSNKLVSGDHCRIVVDEKSGQVTLEDTSTSGTVINKLKVVKKQTCPLQTGDVIYLVYRKNEPEHNVAYLYESLSEKQGMTQESFEANKENVFHGTKDTSGAGAGRGADPRVPPSSPATQVCFEEPQPSTSTSDLFPTASASSTEPSPAGRERSSSCGSGGGGISPKGSGPSVASDEVSSFASALPDRKTASFSSLEPQDQEDLEPVKKKMRGDGDLDLNGQLLVAQPRRNAQTVHEDVRAAAGKPDKMEETLTCIICQDLLHDCVSLQPCMHTFCAACYSGWMERSSLCPTCRCPVERICKNHILNNLVEAYLIQHPDKSRSEEDVQSMDARNKITQDMLQPKVRRSFSDEEGSSEDLLELSDVDSESSDISQPYVVCRQCPEYRRQAAQPPHCPAPEGEPGAPQALGDAPSTSVSLTTAVQDYVCPLQGSHALCTCCFQPMPDRRAEREQDPRVAPQQCAVCLQPFCHLYWGCTRTGCYGCLAPFCELNLGDKCLDGVLNNNSYESDILKNYLATRGLTWKNMLTESLVALQRGVFLLSDYRVTGDTVLCYCCGLRSFRELTYQYRQNIPASELPVAVTSRPDCYWGRNCRTQVKAHHAMKFNHICEQTRFKN
# B2: Aprataxin and PNK-like factor (Homo sapiens), Q8IW19 (parent)
# chain: MSGGFELQPRDGGPRVALAPGETVIGRGPLLGITDKRVSRRHAILEVAGGQLRIKPIHTNPCFYQSSEKSQLLPLKPNLWCYLNPGDSFSLLVDKYIFRILSIPSEVEMQCTLRNSQVLDEDNILNETPKSPVINLPHETTGASQLEGSTEIAKTQMTPTNSVSFLGENRDCNKQQPILAERKRILPTWMLAEHLSDQNLSVPAISGGNVIQGSGKEEICKDKSQLNTTQQGRRQLISSGSSENTSAEQDTGEECKNTDQEESTISSKEMPQSFSAITLSNTEMNNIKTNAQRNKLPIEELGKVSKHKIATKRTPHKEDEAMSCSENCSSAQGDSLQDESQGSHSESSSNPSNPETLHAKATDSVLQGSEGNKVKRTSCMYGANCYRKNPVHFQHFSHPGDSDYGGVQIVGQDETDDRPECPYGPSCYRKNPQHKIEYRHNTLPVRNVLDEDNDNVGQPNEYDLNDSFLDDEEEDYEPTDEDSDWEPGKEDEEKEDVEELLKEAKRFMKRK
# Variants of: B1
# Details: with parp1_human PARP1, P09874
row,effect of a mutation on the interaction,Variant
1,disrupting interaction,C635A;C641A

# Variants of: B2
# Details: with parp1_human PARP1, P09874
# Target sequence in this assay (P09874 whole entry): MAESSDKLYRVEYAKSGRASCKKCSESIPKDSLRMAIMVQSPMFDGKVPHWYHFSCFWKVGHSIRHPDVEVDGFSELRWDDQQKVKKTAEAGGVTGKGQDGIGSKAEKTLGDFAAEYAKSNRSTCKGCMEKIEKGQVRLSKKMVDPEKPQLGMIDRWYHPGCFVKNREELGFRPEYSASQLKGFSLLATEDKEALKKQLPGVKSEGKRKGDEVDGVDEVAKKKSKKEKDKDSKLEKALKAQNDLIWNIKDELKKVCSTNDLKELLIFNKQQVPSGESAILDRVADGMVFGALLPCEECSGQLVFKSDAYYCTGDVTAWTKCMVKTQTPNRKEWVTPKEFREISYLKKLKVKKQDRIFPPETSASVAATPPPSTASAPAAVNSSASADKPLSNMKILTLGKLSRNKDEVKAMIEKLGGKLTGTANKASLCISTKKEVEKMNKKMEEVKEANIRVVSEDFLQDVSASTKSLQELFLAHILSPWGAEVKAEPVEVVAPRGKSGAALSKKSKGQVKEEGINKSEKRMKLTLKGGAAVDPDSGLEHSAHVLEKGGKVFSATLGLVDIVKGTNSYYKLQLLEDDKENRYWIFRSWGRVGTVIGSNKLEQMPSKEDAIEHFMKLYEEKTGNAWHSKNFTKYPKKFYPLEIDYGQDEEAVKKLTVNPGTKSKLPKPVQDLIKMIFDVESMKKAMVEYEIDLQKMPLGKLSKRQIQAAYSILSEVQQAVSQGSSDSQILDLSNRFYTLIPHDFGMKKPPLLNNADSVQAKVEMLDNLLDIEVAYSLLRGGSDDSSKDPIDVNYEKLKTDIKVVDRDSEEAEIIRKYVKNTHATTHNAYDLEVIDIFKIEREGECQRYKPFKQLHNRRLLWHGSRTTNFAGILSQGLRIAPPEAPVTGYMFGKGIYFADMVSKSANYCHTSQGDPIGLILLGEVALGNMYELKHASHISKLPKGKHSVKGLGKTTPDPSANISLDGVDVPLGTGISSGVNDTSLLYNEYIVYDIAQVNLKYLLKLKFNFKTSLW
row,effect of a mutation on the interaction,Variant
1,disrupting interaction,C379A;C385A;C421A;C427A
